Experimental findings from paper PMC7375805 are described below.

This test deals with AP2 FLAP (full-length β2 subunit AP2 complex, i.e. AP2 lacking the α appendage and the α hinge) (UniProt P18484). Kind of test: cryo-EM structure; cryo-electron tomography and subtomogram averaging of AP2 FLAP on liposomes with PtdIns(4,5)P2 and TGN38 YxxΦ lipopeptide, no clathrin, HKM2 buffer; ~9 Å.

Substance “AP2 FLAP (full-length β2 subunit AP2 complex, i.e. AP2 lacking the α appendage and the α hinge) (from UniProt P18484 1-621; P63010 1-937; P84092 1-435; P62743 1-142)” came in with a percent of AP2 dimerized of 20% and a stoichiometry N of 2.

By stoichiometry N is commonly meant a count of units in the complex or per binding partner.
